Results: patent US20220259605A1 (OXFORD UNIVERSITY INNOVATION, published 2022)

Molecular target: T1, human CEACAM5 protein (SinoBiological) (human, UniProt P06731 35-685)
T1 construct: also called human CEA protein; carcinoembryonic antigen
T1 sequence: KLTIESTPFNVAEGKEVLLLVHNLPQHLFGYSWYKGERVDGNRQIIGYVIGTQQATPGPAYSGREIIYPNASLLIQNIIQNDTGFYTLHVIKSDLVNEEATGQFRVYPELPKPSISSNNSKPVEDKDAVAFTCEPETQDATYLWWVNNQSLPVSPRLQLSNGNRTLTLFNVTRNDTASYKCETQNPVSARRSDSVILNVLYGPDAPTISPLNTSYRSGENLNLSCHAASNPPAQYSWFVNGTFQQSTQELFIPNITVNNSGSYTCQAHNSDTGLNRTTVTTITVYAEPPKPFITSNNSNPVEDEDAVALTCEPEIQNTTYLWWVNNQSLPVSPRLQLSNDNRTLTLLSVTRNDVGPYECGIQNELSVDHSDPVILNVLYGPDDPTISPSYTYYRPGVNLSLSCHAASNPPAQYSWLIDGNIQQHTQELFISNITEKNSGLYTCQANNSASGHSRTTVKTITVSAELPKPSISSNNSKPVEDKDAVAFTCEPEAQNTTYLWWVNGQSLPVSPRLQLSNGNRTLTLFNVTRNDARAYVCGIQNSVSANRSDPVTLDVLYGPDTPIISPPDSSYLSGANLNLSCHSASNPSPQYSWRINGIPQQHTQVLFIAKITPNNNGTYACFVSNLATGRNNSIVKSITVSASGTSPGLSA
Assay: biological agglutination test

B1: C43 anti-CEA nanobody, surface-displayed on E. coli through the pNV intimin display system (VHH)
VHH: EVQLVESGGGLVQAGGSLTLSCTSSTLTFTPYRMGWYRQTPGKQRDLVADISPGDGSTKNYAGFAQGRFTISRDNIKNTVYLQMNDLKPEDTAVYYCNTYVAFVGRARTWGQGTQVTVSS
notes: domain: β-intimin domain; also called pNVC43; pNVC43_sfGFP
B1: binds.
